The values that follow come from paper PMC11463468.

The target of this data set is T1, MBD-Halo-AF660 (Homo sapiens, UniProt Q9UIS9 1-77).
T1 sequence: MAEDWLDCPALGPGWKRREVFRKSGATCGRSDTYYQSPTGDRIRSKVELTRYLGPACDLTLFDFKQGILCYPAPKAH
In words: single-molecule TIRF.

B1: M7-A39m-CP (dsDNA)
DNA 1: GTCTTCCTGCTGATGCAATCCGCTAGGTCGCGAGTCTCCGCCGCGAGAGGGCCGG
DNA 2: CCGGCCCTCTCGCGGCGGAGACTCGCGACCTAGCGGATT
DNA 3: GCATCAGCAGGAAGAC
modifications: 5mC strand 1: 21,29,31,39,42,44,53; strand 2: 2,11,13,16,24,26,34
Consider B1, for which the binding result was “binds”.
